Results on one molecule are retold here after US20030166537A1, “Use of GDNF for treating corneal defects” (Biopharm Gesellschaft Zur Biotechnologischen Entwicklung …, priority 1999, published 2003).

Holding throughout (assay type): cell-based
Experiment [1] relates to primary rabbit corneal epithelial cells. Kind of experiment: single cell clonal growth assay (colony formation, clonal proliferation). Particulars: 250 ng/ml. The text has this: In order to evaluate the effect of GDNF on corneal proliferation, recombinant human GDNF was used (R&D, Minneapolis, Minn., USA). For the evaluation of the effect on corneal epithelial proliferaton a single cell clonal growth model was utilized which allows to determine the effect of the given growth factor on both colony formation as well as clonal expansion (Kruse et al., 1991). New Zealand white rabbits were housed and treated according to the ARVO Resolution of Animals in Research and under observation of German Federal Laws and the laws of the State of Baden-Württemberg. Prior to sacrifice with an intravenous overdose of pentobarbital, they received an intramuscular injection of xylazine hydrochloride and ketamine hydrochloride. The details of the clonal growth assay are described in Kruse et al. (1991). 5000 viable cells were seeded in each 16 mm dish in serum-free medium MCDB 151 with a supplement (S) of insulin (5 μg/ml), transferrin (5 μg/ml), selenium (5 ng/ml) and hydrocortisone (5 μg/ml) (all from Sigma, Deisenhofen, Germany). […] This quantification was facilitated by the use of dishes which contained a grit on the bottom which is roughly 2 mm wide (from Sarstedt, Newton, N.C., USA). For data collection the entire surface area of four randomly selected dishes for each condition was screened. Furthermore, the number of cells per colony was determined in 75 randomly selected colonies for each condition. Furthermore, the total number of cells/dish was calculated in order to carry out an evaluation for artemin. In order to stimulate the cellular proliferation, GDNF (50 or 200 ng/ml) or artemin (250 ng/ml) was added to the medium. In order to estimate the rate of proliferation after 12 days (a time when neighbouring colonies started to grow into each other and, therefore, prevented numerical quantification) dishes were fixed in −20° C. methanol and stained with methylene blue.
All experiments examining the effect of GDNF on corneal proliferation were performed in triplicate with cells from different donors. The influence of growth factor on colony formation, colony size and cell number was studied using one-way analysis of variance. […] Student's t-test was employed to determine which differences were significant after analysis of variance.

Experiment [2] has the same test system. Put plainly: in vitro wound healing assay (scratch wound), artemin. Particulars: 100 ng/ml; within 6 h; control about 20%. As to the method: For in vitro wound healing assays primary corneal epithelial cells and cells from the corneal epithelial cell line were seeded at a density of 5×10^5 onto 60 mm plastic dishes with 2 mm grid (Sarstedt, Numbrecht, Germany) and cultured for 2 days until subconfluency. For experiments with artemin primary cultured rabbit corneal epithelial cells were used. These cells had been isolated with Dispase (1,2 U/ml) and trypsin/EDTA. Rabbit cells had been cultured in medium 500 with additives (Cascade Biologies).
The cell layer was injured under the microscope by inducing several parallel scratches with a soft plastic cell scrubber (Falcon, Becton and Dickinson, Heidelberg, Germany). The tip of the scrubber was cut and measured about 1 mm and consequently the width of the scratch in the cell layer was also about 1 mm. Selected areas in the dishes were marked with a very fine marker pen and consecutive images were taken at different time points at 5×magnification under an inverted phase contrast microscope (Axiovert 25, Zeiss, Jena, Germany) equipped with a video camera. […] For each condition four representative areas were evaluated within three dishes. […] 18 hours later the mean diameter of the same scratch was calculated again and expressed in percent of the diameter at the beginning of the experiment.

Experiment [3] has as its system FAK, Pyk2, cRaf, MEK1, Erk 1 and 2, Elk, RSK. Kind of experiment: western blot of phosphorylated intracellular signaling proteins in corneal epithelial cells. Particulars: 250 ng/ml artemin for 10, 20, 40 and 60 minutes; human corneal epithelial cells.

B1: artemin: GDNF family member, also referred to as enovin or neublastin (SEQ ID NO 5) (protein)
chain: CRLRSQLVPVRALGLGHRSDELVRFRFCSGSCRRARSPHDLSLASLLGAGALRPPPGSRPVSQPCCRPTRYEAVSFMDVNSTWRTVDRLSATACGC
modifications: artemin
On to B1, for which the “total number of cells per dish” value in experiment [1] (control 200±98 cells, p<0.001) is recorded as “significantly increased”. In experiment [1] (day 6, control 40±20), the “total number of colonies” value is 79±38. Further, the “gap in the cell monolayer filled” value in experiment [2] was determined as 29±8%. In addition, in experiment [3], the “phosphorylated Erk 1 and 2” value is on record as “gradually increased”; the “phosphorylated MEK” value is listed as “increasing amount”.
